In patent publication US20150225457A1:

Biological target: mouse CEACAM1 on SEB-responsive T cells (mouse), P31809
Assay: cell-based or functional assay

TIM3 up-regulation on SEB-responsive T-cells after in vitro re-stimulation (% Mean Fluorescence): 29
B1: mouse CEACAM1 N-domain Fc fusion protein, P31809 35-142 (Fc fusion, UniProt P31809 35-142, looked up, not shown: a dimerising Fc or GST)
chain: EVTIEAVPPQVAEDNNVLLLVHNLPLALGAFAWYKGNTTAIDKEIARFVPNSNMNFTGQAYSGREIIYSNGSLLFQMITMKDMGVYTLDMTDENYRRTQATVRFHVHP
